Reference: patent US12606635B2, “Glypican-2-binding moieties, chimeric antigen receptors and uses thereof” (Nanjing Legend Biotech Co., Ltd., priority 2020, dated 2026)

T1: recombinant human GPC2-His protein (Homo sapiens, UniProt Q8N158)
T1 construct: His
T1 sequence (Q8N158 24-554): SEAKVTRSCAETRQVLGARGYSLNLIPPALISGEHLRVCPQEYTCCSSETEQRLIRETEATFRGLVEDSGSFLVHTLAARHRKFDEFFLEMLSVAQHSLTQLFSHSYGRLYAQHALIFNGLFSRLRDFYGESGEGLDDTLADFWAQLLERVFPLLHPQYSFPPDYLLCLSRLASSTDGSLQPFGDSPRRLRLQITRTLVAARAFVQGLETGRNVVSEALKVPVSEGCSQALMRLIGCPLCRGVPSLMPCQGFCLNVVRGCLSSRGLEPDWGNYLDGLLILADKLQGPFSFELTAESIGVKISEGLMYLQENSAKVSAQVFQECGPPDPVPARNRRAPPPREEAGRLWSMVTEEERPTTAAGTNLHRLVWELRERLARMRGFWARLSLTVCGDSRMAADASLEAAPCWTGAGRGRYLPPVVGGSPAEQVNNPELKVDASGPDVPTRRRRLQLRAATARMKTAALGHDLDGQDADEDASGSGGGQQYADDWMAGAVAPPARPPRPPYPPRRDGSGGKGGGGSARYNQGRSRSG


Target: T1, recombinant human GPC2-His protein
Test: SPR (Biacore T200) affinity of anti-GPC2 VHH-hIgG1Fc
Settings: 1:1 binding model
Experimental: Each of the exemplary anti-GPC2 VHH sequences was cloned into a vector comprising a human IgG1Fc fragment (hlgG1Fc) sequence to facilitate recombinant expression of anti-GPC2 VHH-hlgG1Fc. Recombinant proteins were obtained and purified for SPR assays. The affinity of each anti-GPC2 VHH-hIgG1Fc for GPC2 was determined by SPR using a BIACORE® T200 analytical system (GE Healthcare). Briefly, recombinant human GPC2-His protein was covalently coupled to a CM5(s) sensor chip using an amine coupling kit. Exemplary VHH-hIgG1Fc proteins were serially diluted in running buffer (10 mM HEPES, 150 mM NaCl, 3 mM EDTA, 0.05% Tween-20, pH 7.4) and injected over the chip cell at a flowrate of 100 μL/min for 100 seconds followed by buffer-only injection for 300 seconds to allow for antibody dissociation. The dissociation […] (KD) were determined using the BIACORE® T200 evaluation software version 3.0 (Langmuir binding, local fit, 1:1 binding model).

| Molecule | ka [M⁻¹ s⁻¹] | kd [s⁻¹] |
| --- | --- | --- |
| AS72669VH6-hIgG1Fc: AS72669VH6 VHH fused to human IgG1Fc fragment (protein, left off: a dimerising Fc or GST, AS72669VH6 VHH fused to human IgG1Fc fragment) QVQLVESGGGVVQPGGSLRLSCAASRFTYSSYCMGWIRQAPGKGREGVAIFYTGGGRTYYADSVKGRFTISQDNSKNTLYLQMNSLRAEDTAVYYCVAGFYCSGGYWEGDFGYWGQGTLVTVSS | 520000 | 7.7e-05 |
| AS71529VH6-AS70950VH6-hIgG1Fc: tandem AS71529VH6-AS70950VH6 VHH fused to human IgG1Fc fragment (protein, left off: a dimerising Fc or GST, tandem AS71529VH6-AS70950VH6 VHH fused to human IgG1Fc fragment) EVQLVESGGGLVQPGGSLRLSCAVSEYRYSSRYCMGWFRQAPGKGREGVAAIDSNGSADYVDSVKGRFTISKDNSKNTLYLQMNSLRAEDTAMYYCAADHLAYDCYSGATSVFRYWGQGTLVTVSSGGGGSGGGGSGGGGSEVQLVESGGGLVQPGGSLRLSCAISEFTYKNTCVGWFRQAPGKGREGVAAIDSDGNTNYVDSVKGRFTISQDNSKNTVYLQMNSLRAEDTAMYYCAAGAYCGRLLLWIGNYAYWGQGTLVTVSS | 320000 | 6.1e-05 |

System: human neuroblastoma cell line SH-SY5Y
Test: In vitro cytotoxicity assay (LDH), SH-SY5Y
Format: cell-based
Settings: second group, FIG. 6C
Experimental: The pre-activated T cells were transduced with lentivirus stock in the presence of […] polybrene and 300 IU/mL IL-2. T cells and lentivirus were centrifuged at 1000 g, 32° C. for 1 h and placed in humidified cell culture incubator for transgene expression under suitable conditions. On day 5 or day 7 or day 10 post-transduction, transduced T cells were harvested and co-incubated with tumor cells at an effector (CAR T) to target cell ratio of 10:1 or 5:1 or 2:1 or 1:1 or 0.2:1 for 20 hours. Target cells were human neuroblastoma cell line SH-SY5Y (ATCC, #CRL-2266), human neuroblastoma cell line IMR-32 cells (ATCC, #CCL-127), or human epidermoid carcinoma cell line A-431 (ATCC, #CRL-1555). To assay the cytotoxicity of CAR T cells on tumor cells, the Cytotoxicity Detection Kit (LDH) (Roche, #11644793001) assay reagents were prepared according to manufacturer's protocol. Reaction mix was added to the cell-free supernatant of each sample to detect the LDH released from cells. Optical densities at OD492 nm and OD650 nm were measured by PHERStar Microplate Reader. Baseline LDH released from the target cell in the absence of effector cells and effector cell in the absence of target cells were subtracted from the total LDH amount. The target maximum release was obtained by adding Triton-X100 at a final concentration of 1% to target cells in the absence of effector cells at the time when the cytotoxicity assays initiated. Supernatant from target cells in the absence of effector cells was used for target minimum release. The specific cytotoxicity was calculated by the formula: % Target cell lysis=100*[(OD CAR T cell+Target cell)−(OD CAR T cell)−(OD Target cell)+(OD Buffer background)]/(OD Target Maximum release−OD Target Minimum release).
On day 5 or day 8 or day 10 post-transduction, transduced T cells were harvested and co-incubated with tumor cells at an effector (CAR T) to target cell ratio of 10:1 or 1:1 or 0.2:1 for 20 hours. To assay the cytotoxicity of CAR T cells on tumor cells, the Cytotoxicity Detection Kit (LDH) (Roche, #11644793001) was added to the culture supernatant and the specific cytotoxicity for each CAR T cell construct was measured as described in Example 6.

| Molecule | cytotoxicity against SH-SY5Y compared with CAS70950-BBz, CAS72052-BBz and CAS72669-BBz |
| --- | --- |
| CAS77986-BBz: camel VHH anti-GPC2 CAR (4-1BB, CD3ζ), SEQ ID NO: 211; tested as CAR T cells (protein, expressed in CAR T cells; CAS77986-BBz) MALPVTALLLPLALLLHAARPQVQLVESGGGSVQAGGSLRLSCAASASGYTYSSDSMAWFRQAPGKEREGVAGISTGGRSTYYADSVKGRFTISQDNAKTTVYLHMNSLKPEDTAMYYCAADGPSMTAIQALGDLYPVDFAWWGQGTQVTVSSTTTPAPRPPTPAPTIASQPLSLRPEACRPAAGGAVHTRGLDFACDIYIWAPLAGTCGVLLLSLVITLYCKRGRKKLLYIFKQPFMRPVQTTQEEDGCSCRFPEEEEGGCELRVKFSRSADAPAYKQGQNQLYNELNLGRREEYDVLDKRRGRDPEMGGKPRRKNPQEGLYNELQKDKMAEAYSEIGMKGERRRGKGHDGLYQGLSTATKDTYDALHMQALPPR | better cytotoxicity |
| CAS77932-BBz: camel VHH anti-GPC2 CAR (4-1BB, CD3ζ), SEQ ID NO: 208; tested as CAR T cells (protein, expressed in CAR T cells; CAS77932-BBz) MALPVTALLLPLALLLHAARPQVQLKESGGGSVQAGGSLRLSCAVSGYWYSVAWMGWFRQTPGKEREGVAAVLNGGGRRYYADSVKGRFTISQDNSKNTLYLQMNSLKPEDTAMYYCAAGNGVGHPLGPSEYNYWGQGTQVTVSSTTTPAPRPPTPAPTIASQPLSLRPEACRPAAGGAVHTRGLDFACDIYIWAPLAGTCGVLLLSLVITLYCKRGRKKLLYIFKQPFMRPVQTTQEEDGCSCRFPEEEEGGCELRVKFSRSADAPAYKQGQNQLYNELNLGRREEYDVLDKRRGRDPEMGGKPRRKNPQEGLYNELQKDKMAEAYSEIGMKGERRRGKGHDGLYQGLSTATKDTYDALHMQALPPR | better cytotoxicity |
| CAS78117-BBz: camel VHH anti-GPC2 CAR (4-1BB, CD3ζ), SEQ ID NO: 212; tested as CAR T cells (protein, expressed in CAR T cells; CAS78117-BBz) MALPVTALLLPLALLLHAARPQVKLVESGGGSVQAGGALRLSCIVRRYTYATYSMAWFRQSPGKEREGVAGLDSVGATGYAESVKGRFTISKDNAKNILYLQMNSLKPEDTAMYYCVVDPASAKVTYGSWSTPSYAYWGQGTQVTVSSTTTPAPRPPTPAPTIASQPLSLRPEACRPAAGGAVHTRGLDFACDIYIWAPLAGTCGVLLLSLVITLYCKRGRKKLLYIFKQPFMRPVQTTQEEDGCSCRFPEEEEGGCELRVKFSRSADAPAYKQGQNQLYNELNLGRREEYDVLDKRRGRDPEMGGKPRRKNPQEGLYNELQKDKMAEAYSEIGMKGERRRGKGHDGLYQGLSTATKDTYDALHMQALPPR | better cytotoxicity |
| CAS77916-BBz: camel VHH anti-GPC2 CAR (4-1BB, CD3ζ), SEQ ID NO: 207; tested as CAR T cells (protein, expressed in CAR T cells; CAS77916-BBz) MALPVTALLLPLALLLHAARPQVHLMESGGGSVQAGGSLRLSCATSGYTSSWNCMGWFRQPPGKEREGVATIANRGHSTYYADSVKGRFTISQGNAKNTVYLQMNSLKPEDTAMYYCATDTWACVGISTDFEYWGQGTQVTVSSTTTPAPRPPTPAPTIASQPLSLRPEACRPAAGGAVHTRGLDFACDIYIWAPLAGTCGVLLLSLVITLYCKRGRKKLLYIFKQPFMRPVQTTQEEDGCSCRFPEEEEGGCELRVKFSRSADAPAYKQGQNQLYNELNLGRREEYDVLDKRRGRDPEMGGKPRRKNPQEGLYNELQKDKMAEAYSEIGMKGERRRGKGHDGLYQGLSTATKDTYDALHMQALPPR | better cytotoxicity |
| CAS79101-BBz: camel VHH anti-GPC2 CAR (4-1BB, CD3ζ), SEQ ID NO: 215; tested as CAR T cells (protein, expressed in CAR T cells; CAS79101-BBz) MALPVTALLLPLALLLHAARPQVQLVESGGGSVQAGGSLRLSCAASGDTYSNYCMGWFRQAPGKEREEVAAIDSDGSRRYPDSVKGRFTISKDNAKKILYLQMNSLKPEDTAMYFCATDPKVACARVVEYGGGWYRWGQGTQVTVSSTTTPAPRPPTPAPTIASQPLSLRPEACRPAAGGAVHTRGLDFACDIYIWAPLAGTCGVLLLSLVITLYCKRGRKKLLYIFKQPFMRPVQTTQEEDGCSCRFPEEEEGGCELRVKFSRSADAPAYKQGQNQLYNELNLGRREEYDVLDKRRGRDPEMGGKPRRKNPQEGLYNELQKDKMAEAYSEIGMKGERRRGKGHDGLYQGLSTATKDTYDALHMQALPPR | better cytotoxicity |
| CAS79236-BBz: camel VHH anti-GPC2 CAR (4-1BB, CD3ζ), SEQ ID NO: 216; tested as CAR T cells (protein, expressed in CAR T cells; CAS79236-BBz) MALPVTALLLPLALLLHAARPQVKLVESGGGSVQAGGSLRLSCAVSGYTYSSYCMAWFRQAPGEEREGVASIDAGGRTTYVDSVKGRFTISKDNAKTSLYLQMNSLKPEDTAMYYCAVDVRTRCGGTWDGEAVYFPYWGQGTQVTVSSTTTPAPRPPTPAPTIASQPLSLRPEACRPAAGGAVHTRGLDFACDIYIWAPLAGTCGVLLLSLVITLYCKRGRKKLLYIFKQPFMRPVQTTQEEDGCSCRFPEEEEGGCELRVKFSRSADAPAYKQGQNQLYNELNLGRREEYDVLDKRRGRDPEMGGKPRRKNPQEGLYNELQKDKMAEAYSEIGMKGERRRGKGHDGLYQGLSTATKDTYDALHMQALPPR | better cytotoxicity |
